These results are taken from paper PMC13245405, “Stable inheritance of the Streptomyces linear plasmid SCP1 by dual ParABS partition systems” (Nucleic Acids Research, 2026).

The target in data set [1] is T1, ParB1-His6 WT (Streptomyces coelicolor A3(2), plasmid SCP1) (UniProt Q9AD11).
T1 sequence: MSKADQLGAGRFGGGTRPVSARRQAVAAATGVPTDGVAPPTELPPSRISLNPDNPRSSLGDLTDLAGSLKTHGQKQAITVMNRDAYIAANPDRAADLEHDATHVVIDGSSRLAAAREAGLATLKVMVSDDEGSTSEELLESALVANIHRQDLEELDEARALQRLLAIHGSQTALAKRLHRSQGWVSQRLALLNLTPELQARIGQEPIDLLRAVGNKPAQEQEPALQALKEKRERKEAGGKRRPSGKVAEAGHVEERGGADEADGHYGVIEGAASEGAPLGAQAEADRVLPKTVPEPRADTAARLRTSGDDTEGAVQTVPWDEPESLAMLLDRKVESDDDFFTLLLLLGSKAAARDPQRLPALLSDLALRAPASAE
Kind of data set: BLI. The note with it: 1 mM CTP; BLI: 100 mM Tris-HCl pH 8, 100 mM NaCl, 1 mM MgCl2, 0.005% Tween 20, 25 C; ParB 0.0625-2 uM (50 bp) or 1 uM (190 bp).

Data set [2] addresses T2, ParB1 (Streptomyces coelicolor, UniProt Q9AD11).
T2 construct: ParB1-His6, C-terminal His6 kept, pET21b, codon-optimized synthetic gene, E. coli Rosetta (BL21 DE3) pLysS; dimer
Kind of data set: isothermal titration calorimetry. The class given is binding. (In general: ITC needs no label: the signal is the heat of the interaction.)

The target in data set [3] is T3, ParB2 (Streptomyces coelicolor, UniProt Q9ACT0).
T3 construct: ParB2-His6, C-terminal His6 kept, pET21b, codon-optimized synthetic gene, E. coli Rosetta (BL21 DE3) pLysS; dimer
Kind of data set: isothermal titration calorimetry. Format: binding.

Data set [4] concerns the target T4, ParB2-His6 WT (Streptomyces coelicolor A3(2), plasmid SCP1) (UniProt Q9ACT0).
T4 sequence: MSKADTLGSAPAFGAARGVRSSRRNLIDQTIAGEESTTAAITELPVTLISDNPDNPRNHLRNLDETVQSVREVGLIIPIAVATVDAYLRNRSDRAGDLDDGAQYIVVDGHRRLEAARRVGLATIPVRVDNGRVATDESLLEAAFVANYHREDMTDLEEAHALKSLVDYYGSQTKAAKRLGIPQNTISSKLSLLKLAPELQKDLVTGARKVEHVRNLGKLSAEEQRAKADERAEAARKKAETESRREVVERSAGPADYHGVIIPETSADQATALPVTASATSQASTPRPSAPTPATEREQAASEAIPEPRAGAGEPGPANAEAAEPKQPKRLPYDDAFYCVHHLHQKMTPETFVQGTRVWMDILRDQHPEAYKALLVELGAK
Kind of data set: BLI. The settings on record: 1 mM CTP; BLI: 100 mM Tris-HCl pH 8, 100 mM NaCl, 1 mM MgCl2, 0.005% Tween 20, 25 C; ParB 0.0625-2 uM (50 bp) or 1 uM (190 bp).

The target of data set [5] is T5, ParB2 (Streptomyces coelicolor, UniProt Q9ACT0, R57A).
T5 construct: ParB2-His6, C-terminal His6 kept, pET21b, codon-optimized synthetic gene, E. coli Rosetta (BL21 DE3) pLysS; dimer
As to the kind of experiment: CTP binding test in supplement. The settings on record: 1 mM CTP with parS2 if DSF as in methods.

Data set [6] has as its target T6, ParB1 (Streptomyces coelicolor, UniProt Q9AD11, S109A).
T6 construct: ParB1-His6, C-terminal His6 kept, pET21b, codon-optimized synthetic gene, E. coli Rosetta (BL21 DE3) pLysS; dimer
Kind of data set: CTP binding test in supplement. The settings on record: 1 mM CTP with parS1 if DSF as in methods.

Data set [7] concerns the target T7, ParB1 (Streptomyces coelicolor, UniProt Q9AD11, N54A).
T7 construct: ParB1-His6, C-terminal His6 kept, pET21b, codon-optimized synthetic gene, E. coli Rosetta (BL21 DE3) pLysS; dimer
Kind of data set: CTP binding test in supplement. The settings on record: 1 mM CTP with parS1 if DSF as in methods.

In data set [8] the target is T8, ParB1 (Streptomyces coelicolor, UniProt Q9AD11, S110A).
T8 construct: ParB1-His6, C-terminal His6 kept, pET21b, codon-optimized synthetic gene, E. coli Rosetta (BL21 DE3) pLysS; dimer
As to the kind of experiment: CTP binding test in supplement. The note with it: 1 mM CTP with parS1 if DSF as in methods.

For data set [9], the target named is T9, ParB2 (Streptomyces coelicolor, UniProt Q9ACT0, N55A).
T9 construct: ParB2-His6, C-terminal His6 kept, pET21b, codon-optimized synthetic gene, E. coli Rosetta (BL21 DE3) pLysS; dimer
As to the kind of experiment: CTP binding test in supplement. The settings on record: 1 mM CTP with parS2 if DSF as in methods.

The target in data set [10] is T3, ParB2. Kind of data set: differential scanning fluorimetry (Tycho). The class given is binding. The settings on record: 1 mM CTP, 4 µM ParB2 dimer, with 2 µM parS2 DNA; 100 mM Tris-HCl, 250 mM NaCl, 1 mM MgCl2, 5% glycerol, pH 8.0. On the technique in general: In DSF a fluorescence change marks the thermal transition of the protein.
In a further data set the target is T10, ParB1-His6 WT (Streptomyces coelicolor A3(2), plasmid …, UniProt Q9AD11 1-375).
T10 sequence: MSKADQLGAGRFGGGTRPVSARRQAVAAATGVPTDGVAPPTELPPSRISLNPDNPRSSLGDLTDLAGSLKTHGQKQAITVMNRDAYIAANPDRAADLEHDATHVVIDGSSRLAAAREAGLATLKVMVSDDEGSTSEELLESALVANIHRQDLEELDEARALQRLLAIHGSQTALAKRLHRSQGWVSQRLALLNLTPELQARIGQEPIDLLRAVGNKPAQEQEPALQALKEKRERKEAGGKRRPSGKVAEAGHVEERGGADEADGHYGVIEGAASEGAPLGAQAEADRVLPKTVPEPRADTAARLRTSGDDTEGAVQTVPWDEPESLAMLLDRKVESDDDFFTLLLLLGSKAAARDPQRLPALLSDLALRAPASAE
As to the kind of experiment: BLI; no CTP; BLI: 100 mM Tris-HCl pH 8, 100 mM NaCl, 1 mM MgCl2, 0.005% Tween 20, 25 C; ParB 0.0625-2 uM (50 bp) or 1 uM (190 bp). The note with it: protein: recombinant, tags: C-terminal His6, chain copies: 2, label: 5' biotin on strand 1, blunt. A general note: Biolayer interferometry detects binding as a change in optical thickness at a sensor tip.

The next data set has as its target T11, His6-ScParB WT (Streptomyces coelicolor, UniProt Q9S6U1 1-328).
T11 sequence: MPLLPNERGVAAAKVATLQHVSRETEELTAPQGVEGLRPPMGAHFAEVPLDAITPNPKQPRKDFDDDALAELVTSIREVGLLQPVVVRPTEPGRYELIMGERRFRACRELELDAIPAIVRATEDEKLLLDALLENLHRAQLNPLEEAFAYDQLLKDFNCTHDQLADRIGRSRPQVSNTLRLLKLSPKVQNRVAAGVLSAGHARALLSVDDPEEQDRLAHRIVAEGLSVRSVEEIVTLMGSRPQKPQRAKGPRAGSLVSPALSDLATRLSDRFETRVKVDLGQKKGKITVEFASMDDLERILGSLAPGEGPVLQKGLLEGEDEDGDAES
The description is as above. The note with it: protein: recombinant, tags: N-terminal His6, chain copies: 2, label: 5' biotin on strand 1, blunt.

In another data set the target is T12, ParB2-His6 WT (Streptomyces coelicolor A3(2), plasmid …, UniProt Q9ACT0 1-381).
T12 sequence: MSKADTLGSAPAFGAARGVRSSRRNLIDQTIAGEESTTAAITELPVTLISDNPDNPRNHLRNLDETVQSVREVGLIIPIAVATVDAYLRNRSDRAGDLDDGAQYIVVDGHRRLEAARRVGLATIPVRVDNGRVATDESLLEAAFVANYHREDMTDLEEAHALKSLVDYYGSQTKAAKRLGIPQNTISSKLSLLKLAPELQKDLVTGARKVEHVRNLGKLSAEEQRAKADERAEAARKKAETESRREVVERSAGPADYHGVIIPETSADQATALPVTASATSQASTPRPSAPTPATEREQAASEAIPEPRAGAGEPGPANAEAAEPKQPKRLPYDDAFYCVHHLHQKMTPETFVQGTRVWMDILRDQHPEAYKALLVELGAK
The description is as above. The settings on record: protein: recombinant; tags: C-terminal His6; chain copies: 2; label: 5' biotin on strand 1; blunt.

The mark [11] stands for this setting: printed strands give one G:G mismatch at site centre.

T7 sequence (Q9AD11 entry or part of it N54A): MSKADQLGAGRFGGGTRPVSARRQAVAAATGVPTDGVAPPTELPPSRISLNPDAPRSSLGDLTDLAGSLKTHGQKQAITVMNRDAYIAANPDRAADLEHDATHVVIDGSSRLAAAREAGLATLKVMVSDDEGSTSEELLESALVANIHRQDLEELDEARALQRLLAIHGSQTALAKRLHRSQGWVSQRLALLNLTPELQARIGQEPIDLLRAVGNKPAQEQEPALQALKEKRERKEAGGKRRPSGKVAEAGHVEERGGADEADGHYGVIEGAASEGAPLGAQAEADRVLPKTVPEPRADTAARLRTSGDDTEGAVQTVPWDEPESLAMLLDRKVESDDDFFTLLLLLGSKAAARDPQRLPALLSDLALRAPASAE
T6 sequence (Q9AD11 entry or part of it S109A): as the sequence (Q9AD11 entry or part of it N54A) above, with A54N, S109A counted along it
T5 sequence (Q9ACT0 entry or part of it R57A): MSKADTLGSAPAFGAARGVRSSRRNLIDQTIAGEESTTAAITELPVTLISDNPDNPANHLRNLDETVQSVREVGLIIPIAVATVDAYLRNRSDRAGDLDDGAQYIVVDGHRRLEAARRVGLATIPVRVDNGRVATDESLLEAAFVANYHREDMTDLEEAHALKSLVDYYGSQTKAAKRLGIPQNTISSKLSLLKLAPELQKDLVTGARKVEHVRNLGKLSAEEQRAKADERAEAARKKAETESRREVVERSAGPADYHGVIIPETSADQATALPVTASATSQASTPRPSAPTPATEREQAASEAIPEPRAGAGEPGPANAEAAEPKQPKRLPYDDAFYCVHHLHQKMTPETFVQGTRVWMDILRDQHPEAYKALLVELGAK
T8 sequence (Q9AD11 entry or part of it S110A): as the sequence (Q9AD11 entry or part of it N54A) above, with A54N, S110A counted along it
T9 sequence (Q9ACT0 entry or part of it N55A): as the sequence (Q9ACT0 entry or part of it R57A) above, with N55A, A57R counted along it

parS1 190-bp closed loop: the binding signal (fold BLI signal vs no CTP) in data set [1] amounted to 4.
As for `Nc1ccn([C@@H]2O[C@H](COP(=O)(O)OP(=O)(O)OP(O)(O)=S)[C@@H](O)[C@H]2O)c(=O)n1` [CTPγS], the Kd amounted to 28.2 ± 5.9 µM at ParB1 [2] and 12.5 ± 5.05 µM at ParB2 [3].
In data set [4], parS2 190-bp closed loop gave a binding signal (fold BLI signal vs no CTP) of 3.
Turning to `Nc1ccn([C@@H]2O[C@H](COP(=O)(O)OP(=O)(O)OP(=O)(O)O)[C@@H](O)[C@H]2O)c(=O)n1` [CTP], the “CTP binding test in supplement” value on ParB2 [5] is “ParB1 N54A, S109A, and S110A or ParB2 N55A and R57A still bound CTP”; on ParB1 [6], “ParB1 N54A, S109A, and S110A or ParB2 N55A and R57A still bound CTP”; on ParB1 [7] it was “ParB1 N54A, S109A, and S110A or ParB2 N55A and R57A still bound CTP”; on ParB1 [8], “ParB1 N54A, S109A, and S110A or ParB2 N55A and R57A still bound CTP”; on ParB2 [9], “ParB1 N54A, S109A, and S110A or ParB2 N55A and R57A still bound CTP”. The Kd on ParB1 [2] is 31.6 ± 17.8 µM. The “differential scanning fluorimetry (Tycho)” value on ParB2 [10] was “only when ParB1 or ParB2 was incubated with both their cognate parS site and CTP”.

B1: parS1 50 bp (dsDNA)
DNA 1: CTTCGGACGCGGCACCCTCTATTACGGCGTAATGGCCGTCTGCCTCATCC
DNA 2: GGATGAGGCAGACGGCCATTACGGCGTAATAGAGGGTGCCGCGTCCGAAG
As for B1, the equilibrium dissociation constant (Kd) with ParB1-His6 WT (setting [11]) was 0.386 ± 0.042 µM. In the data set with His6-ScParB WT (setting [11]), the binding result is “no binding”.

B2: scrambled parS 50 bp (dsDNA)
DNA 1: GGCCCTGGGTATTCCCTCCGGGACTCGAAGGACGAACGACGCTCGCACAT
DNA 2: ATGTGCGAGCGTCGTTCGTCCTTCGAGTCCCGGAGGGAATACCCAGGGCC
Take B2: the binding result with ParB2-His6 WT, with ParB1-His6 WT and in the data set with His6-ScParB WT was “no binding” in each case.

B3: ScparS 50 bp (dsDNA)
DNA 1: TCGGGGATGGTGTTTCGCGTTTCACGTGAAACAACCCCAGCGTACCGGGC
DNA 2: GCCCGGTACGCTGGGGTTGTTTCACGTGAAACGCGAAACACCATCCCCGA
In the case of B3, the binding result with ParB2-His6 WT and with ParB1-His6 WT was “no binding” each time. For the same molecule, the Kd with His6-ScParB WT was 0.331 ± 0.064 µM.

B4: parS2 50 bp (dsDNA)
DNA 1: AGCAGGCCCCGCCGATTATCACGGCGTGATAATCCCGGAGACGTCCGCTG
DNA 2: CAGCGGACGTCTCCGGGATTATCACGCCGTGATAATCGGCGGGGCCTGCT
Take B4: in the data set with ParB2-His6 WT, the Kd came out at 0.377 ± 0.055 µM. Also, the binding result in the data set with His6-ScParB WT is listed as “no binding”.

Broadly, the Kd is the concentration at which binding is half-saturated.
